The conditions of the data set: Mus musculus, pH 7.4, 20 °C, Urea, Tris-HCl 20 mM, whole UniProt chain shown.

Values joined by “and” are separate entries in the source; they are usually repeats but may differ in a detail not shown here. Equal entries are not always repeated.

The results in this text go back to FireProtDB (doi:10.1021/bi035651x).

B1: Adenosine deaminase wild type, P03958 (protein)
chain: MAQTPAFNKPKVELHVHLDGAIKPETILYFGKKRGIALPADTVEELRNIIGMDKPLSLPGFLAKFDYYMPVIAGCREAIKRIAYEFVEMKAKEGVVYVEVRYSPHLLANSKVDPMPWNQTEGDVTPDDVVDLVNQGLQEGEQAFGIKVRSILCCMRHQPSWSLEVLELCKKYNQKTVVAMDLAGDETIEGSSLFPGHVEAYEGAVKNGIHRTVHAGEVGSPEVVREAVDILKTERVGHGYHTIEDEALYNRLLKENMHFEVCPWSSYLTGAWDPKTTHAVVRFKNDKANYSLNTDDPLIFKSTLDTDYQMTKKDMGFTEEEFKRLNINAAKSSFLPEEEKKELLERLYREYQ
On to B1, for which, where the note is “CD”, the denaturant m value is 0.89 kcal/mol/M and 0.77 kcal/mol/M; the “denaturant midpoint (higher = more stable)” value was 6.15 M and 5.77 M; the unfolding free energy was 22.9 kJ/mol and 18.6 kJ/mol. Also, where the note is “Fluorescence”, the denaturant m value is 0.85 kcal/mol/M; the “denaturant midpoint (higher = more stable)” value was 6.08 M and 5.73 M; the unfolding free energy was 21.6 kJ/mol and 20.4 kJ/mol.
